Test results as given in patent CN114989291A (ZHEJIANG ANWEILUO DIAGNOSTIC TECH CO LTD, dated 2022).
“And” between values parts separate entries of the source, which are not always exact repeats. Equal entries are not always repeated. Where two headings read alike, the source gives them in different places.

How the values were obtained:
[1] = molecular target: 重组的RBD抗原 (SARS-CoV-2 Spike糖蛋白的RBD区域) (SARS-CoV-2, UniProt P0DTC2 319-541)
[2] = molecular target: T1, 全长SARS-CoV-2 S蛋白 (野生型, IVCAS 6.7512, GenBank ID: QHD43416.1) (SARS-CoV-2, UniProt P0DTC2 14-1273); assay: cell-based or functional assay
SARS-CoV-2真病毒的S蛋白 = SARS-CoV-2真病毒的S蛋白 (SARS-CoV-2, UniProt P0DTC2 14-1273); assay: cell-based or functional assay
[3] = molecular target: T1, 全长SARS-CoV-2 S蛋白 (野生型, IVCAS 6.7512, …); assay: cell-based or functional assay; remark: listed apart in the source

B1: 抗SARS-CoV-2全人源化单克隆抗体1B3 (antibody, V domains shown)
VH: VQLVESGGGVVQPGRSLRLSCAASGFTFSSYAMHWVRQAPGKGLEWVAVISYDGSNKYYADSVKGRFTISRDNSKNTLYLQMNSLRAEDTAVYYCAKVAGGPYYYDSSGRDWYFDLWGRGTLVTVSA
VL: DIQMTQSPSSLSASVGDRVSITCRASQSISSFLNWFQQKPGKAPNLLIYAASSLESGVPSRFSGSGSGTDFTLTISSLQPEDFATYYCQQSYSAPPTFGQGTRLEIKR
[1]
  EC50: 0.0134 mg/L
[2]
  EC50, 假病毒细胞模型中和活性 (luciferase, ACE2-293T细胞): 0.0256 µM
SARS-CoV-2真病毒的S蛋白
  EC50, 真病毒感染的细胞模型中和活性 (Vero E6, 结晶紫细胞活率): 16.4 μg/ml and 109 nM
[3]
  EC50, 假病毒细胞模型中和活性 (luciferase, ACE2-293T细胞): 3.86 mg/L
